Data as given in PMC11774035.

Molecular target: T1, His6-Lrp (Klebsiella oxytoca MIT 09-7231) (UniProt A0A181XPK7)
T1 sequence: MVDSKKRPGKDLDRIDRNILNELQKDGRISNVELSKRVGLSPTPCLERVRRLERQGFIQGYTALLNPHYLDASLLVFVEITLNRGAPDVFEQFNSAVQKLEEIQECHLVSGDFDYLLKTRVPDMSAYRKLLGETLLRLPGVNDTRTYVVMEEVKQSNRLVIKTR
Test: EMSA
Conditions: 40 mM HEPES ([…], room temperature 20 min

Sequence	binding
TCTCTCACTCGAAATTTAACAGGTTTTTCGTTTGTTTTTTAACAAAAAAGCGATGAGAAAGTGCTATTCCTTGTCTGTTTACTGGACATGAAAGACGATACGGTTTGCACAAATATTGCACGCCAATGAGTGCATTATGTCAATCAAAA (double strand) [aroX-npsA fragment 1]	no binding
TCTCTCCTGGAGAATTAGGAACGTTCACACGCATAAAATCTTCTCTTGAAGAAGAAATTAAAGATCTAAAGAAATGCCGCCAGCTTACCGTGAGATGCTTCTAAGAAAACACCGCAAAACAAGCAACATATAAGCAACACAAACATAACT (double strand) [aroX-npsA fragment 3]	no binding
